The values below come from the supplement of paper PMC10724198.

± gives the standard deviation of the averaged measurements.
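Note: PSI is a weighted mean of sequencing reads over stability bins, variants kept only with over 10 reads, mCherry proximal and sfGFP distal, peptide attached via GGGS linker.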

This data set has as its system Saccharomyces cerevisiae. Put plainly: protein stability index of tFT-peptide fusion (C-terminal peptide) (PSI (0-1 scale)); higher = more stable (slower turnover). The settings on record: genetic background: wild type; temperature: 30 C. On the procedure: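 Multiplexed protein stability (MPS) profiling in S. cerevisiae. Random 12-aa peptides (tFT-X12 library) are fused to the C-terminus of a sfGFP-mCherry tandem fluorescent timer, after mCherry and a GGGS linker. Cells are FACS-sorted into 8 mCherry/sfGFP bins and deep-sequenced. The protein stability index (PSI) is the read-weighted bin average, scaled from 0 (unstable) to 1 (stable). Only peptides with >10 reads are reported; cells were grown at 30 °C in SC-His with glucose.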
In turn, GKGGAEHADQVL displayed a protein stability index of 0.669 ± 0.099.
Regarding GKGGITGWCCHH, the protein stability index stood at 0.648 ± 0.04.
GKHIAEMGNRKN came in with a protein stability index of 0.716 ± 0.074.
On to GKIGYQLGAVIN, for which the protein stability index stood at 0.709 ± 0.068.
The sequence GKINPKMEIWIE gave a protein stability index of 0.7011 ± 0.0049.
GKKTTQELGKTK showed a protein stability index of 0.803 ± 0.13.
Turning to GKKYDEAQLRKG, the protein stability index worked out at 0.709 ± 0.041.
In turn, GKMLCADRSLEY registered a protein stability index of 0.701 ± 0.11.
In turn, GKNIINSKITYK displayed a protein stability index of 0.772 ± 0.043.
For the sequence GKRKEKLEQTAQ, the protein stability index amounted to 0.688 ± 0.027.
Next, GKSGGTGAGEKR: 0.661 ± 0.046; GKTVRERWATRP: 0.651 ± 0.064.
GKYHIFNPNPKA returned a protein stability index of 0.685 ± 0.012.
The sequence GLAELLLTKPTV showed a protein stability index of 0.652 ± 0.021.
Sequence GLAGWCGGGWAL gave a protein stability index of 0.705 ± 0.026.
In the case of GLAPPRPYPPPA it was 0.728 ± 0.065; in that of GLCRVANGGTER, 0.695 ± 0.018; in that of GLGGRAAQKCGQ, 0.688 ± 0.016.
In the case of GLGQGVGWPWAV it was 0.678 ± 0.024; in that of GLGRRPGVGGVR, 0.71 ± 0.0075.
Next, GLGVPWVRWGWV: 0.632 ± 0.019; GLGVVHGYFLVE: 0.59 ± 0.025; GLKNECAIDGVL: 0.623 ± 0.045.
For the sequence GLLCWVGRWGVF, the protein stability index worked out at 0.596 ± 0.05.
Sequence GLLGFVLSKDST had a protein stability index of 0.719 ± 0.052.
Turning to GLLPTPPASLLY, the protein stability index is 0.6888 ± 0.00085.
In turn, GLLRVGGFWSCL had a protein stability index of 0.747 ± 0.019.
In the case of GLLSKVEFEEYQ it was 0.655 ± 0.014; in that of GLLVAGGRNGDC, 0.719 ± 0.054; in that of GLLYHIRVRSRG, 0.66 ± 0.006.
With GLMITSARYVGF, the protein stability index was 0.641 ± 0.012.
Next, GLNCGVCFGGGV: 0.701 ± 0.025; GLPHPPPHPFSL: 0.763 ± 0.055; GLPSLHGTFRLS: 0.69 ± 0.0077.
In the case of GLQLTLINLPLE it was 0.749 ± 0.029; in that of GLSSVVWSGGLC, 0.6222 ± 0.0047.
In the case of GLVAVRARGSRA it was 0.663 ± 0.094; in that of GLVGPKDRVSGL, 0.701 ± 0.018.
Consider GLYSRPVNSNSF, for which the protein stability index was 0.762 ± 0.022.
As to GMDGRGWGGSVV, the protein stability index turned out to be 0.726 ± 0.038.
For GMECFSGRGSEP, the protein stability index was 0.735 ± 0.062.
Next, GMIGLAEVGIKC: 0.573 ± 0.0067; GMPTANMYLLLQ: 0.636 ± 0.017; GMYRHEGQSWDL: 0.7316 ± 0.0065.
Regarding GNEKSSRLRSTT, the protein stability index amounted to 0.644 ± 0.12.
Next, GNFGFKVELGVR: 0.686 ± 0.031; GNIREEYGSTGI: 0.7226 ± 0.0032; GNKKENEKKEKK: 0.734 ± 0.022.
In the case of GNPGRTAHILQL it was 0.655 ± 0.03; in that of GNTGRLERLKRQ, 0.734 ± 0.072; in that of GNVRRVYMDYQG, 0.735 ± 0.039.
In the case of GPCQSPSLVLTC it was 0.555 ± 0.012.
Sequence GPGSWKWKSRRV yielded a protein stability index of 0.6634 ± 0.0034.
GPGTAMCLWWWG: the protein stability index was 0.692 ± 0.0085.
In the case of GPGTSSVARPVS it was 0.735 ± 0.07.
Next, GPGYVFVGSGGW: 0.692 ± 0.027; GPLDEPRIWSHR: 0.669 ± 0.0095.
In the case of GPLEGGDGRWVG it was 0.6852 ± 0.0015; in that of GPLNQALLHCSV, 0.653 ± 0.021; in that of GPPAGGTARSPM, 0.694 ± 0.029.
The sequence GPRGGGGWSCES had a protein stability index of 0.7366 ± 0.0032.
For the sequence GPRIVVLKDVII, the protein stability index worked out at 0.6403 ± 0.0063.
Regarding GPSPFCTIRLKN, the protein stability index was 0.655 ± 0.018.
In the case of GPSREFGSNWII it was 0.612 ± 0.034.
